According to patent publication US20140234903:

Assays:
[1] = molecular target: T1, N-terminally His6-tagged PoyA (polytheonamide precursor peptide)
T1 chain: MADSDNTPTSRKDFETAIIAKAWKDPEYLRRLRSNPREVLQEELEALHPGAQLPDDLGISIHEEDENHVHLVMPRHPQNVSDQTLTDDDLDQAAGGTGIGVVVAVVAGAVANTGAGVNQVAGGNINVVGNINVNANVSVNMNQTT

[2] = molecular target: T2, Nhis-PoyA121 (truncated variant of PoyA, residues 1-121, with the first 24 core amino acids)
T2 chain: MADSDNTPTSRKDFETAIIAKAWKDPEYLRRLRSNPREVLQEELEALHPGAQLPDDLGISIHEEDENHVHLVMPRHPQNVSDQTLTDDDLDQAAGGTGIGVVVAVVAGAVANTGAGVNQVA

B1: PoyF (LanM, N-terminal dehydratase domain) (protein)
chain: MMSSSSSREGDALAHAADPTRSIADDITCGLDSLGGPPTVCDAEHPVPFEELWLGFVAHAARALEPLIAPSLHAAVLHDPHGPLRSLLIELAEMGAPAAFELFALYRIREASAASVFGSVRGVESRDTYNAFVKHLATQQLSPLWDAFPALKPLLATRTNLFIAAMAELCQRWEADHVEIMSVFPELRGIGAPQRIRPGLSDAHGGGRTVTRLSFAGGEALFYKPRPVDMEWGCAQFVEWFNGQDHGMPPLRALSVLPRTDYGWMEAARPALCTHVDAVARFYHRAGMLLALADLFCGVDFHSENLIASGEYPVIVDLETLFHPLGPFESQGDALERTELLPRPIYCEDGAPYVICGLGVVPGKAVIELRRRGWININCDNMASCDVTVPWPVGGAVPRNKEGAAPSIATWSGEIVSGFSAMHVFFRTRRNELWSADGPIVQAFGGGRSRFLLRATRIYVELLRRAVQPQALAAHASSSHIFDRLARTGRGWDEIHRVERQALDRMDVPYFTMETTAQFVRGEGRTIHAFFATSGLHMARRRSEFIDDVILNDRAASIRNVLEQSSYSGEATLPDSRVQTDAGAGA
mass shift of PoyA (ESI-MS) on co-expression; modified residue by LC/MS/MS [1]: produced PoyA with a mass 18 Da less than expected (observed 17090 Da, calculated 17108 Da

B2: PoyE (SAM-dependent methyltransferase (nucleophilic)) (protein)
chain: MTPRSLPTEPLAAPAAAALDAALRLLKEYLDDIGYHGIYKYLATANYYAASPSVFNASRPQSLEAFDRQIHEGPDDWMLARCLTTCAPCRLEALPPPARRVAEVLADVGLLVWNGNTLEQGGYQLISVFDRYILLDARIHFGGSQLHDVYIGPDSHLLLYYMPVEAIRPADHILDLCTGTGVIGLGLSRFSEHVVSTDIAPPALRLAHMNRALNNAEGRVSIRAENLQETLASDECFDLIACNPPYVAAPPELPTPLYAQGPDRDGLGYLRLLMERAPEKLNPGGQAMFVVDLIGDTHRPYYFDDLERIAKEQELFIEAFIDNRLKADGQLPAYKFLYARLFHGTPPEEIEQRMRNFIFDELHAYYYYMTTLRVRRRKPSGLRVLDRYRITSYDEFFQQS
methylation of the C-terminal tryptic peptide 76-121 (LC-ESI/ECD-MS/MS) [2]: Near quantitative monomethylation was observed in this sample, with no evidence of multiple methylation. ECD fragmentation located the site of methylation exclusively to Asn112 (in full-length PoyA numbering) | number of methylations on PoyA (MS, +14 mass units each) [1]: a suite of peptides increasing by 14 mass units (0 to 8 modifications)
